The results in this text go back to paper PMC4994250, “A new mode of SAM domain mediated oligomerization observed in the CASKIN2 neuronal scaffolding protein” (Cell Communication and Signaling : CCS, 2016).

Data set [1] concerns the molecule itself. Nature of the data set: AUC; sedimentation velocity, 150 mM NaCl, 20 mM sodium phosphate pH 7.8, 20 °C, 50,000 rpm; 10 and 34 μM loading, Kd fitted from the 34 μM experiment; monomer-dimer equilibrium (dimer to monomers).
Data set [2] concerns the molecule itself. Nature of the data set: crystal structure; selenomethionine labeled SAM1-SAM2, 0.6 mM in T300 buffer, hanging drop at 4 °C, 0.1 M Tris pH 7.5, 2.4 M sodium formate, 5 mM DTT; SAD, 2.75 Å; one tandem in the asymmetric unit.
Data set [3] concerns the molecule itself. Briefly: AUC; sedimentation velocity, 300 mM NaCl, 20 mM sodium phosphate pH 7.8, 20 °C, 50,000 rpm; 10 and 34 μM loading, Kd fitted from the 34 μM experiment; monomer-dimer equilibrium (dimer to monomers).

B1: human CASKIN2 SAM1-SAM2 tandem (483-634), wild type (domain or fragment)
chain: not shown
modifications: selenomethionine in the protein used for crystals; uniform 15N label in the NMR samples
notes: CASKIN2, human, tandem SAM domains SAM1-SAM2, residues 483-634 of Uniprot Q8WXE0; Cloned into BamHI/XhoI of pET28; the vector probably adds an N-terminal His tag with linker residues (surmise); also called CASKIN2 SAM tandem; wild type SAM tandem; source: E. coli BL21:DE3, purified (Nickel-NTA, gel filtration)
As for B1, the Kd in data set [1] worked out at 52.9 µM; in data set [3], 27.6 µM. For the same protein, in data set [2], the “stoichiometry N” value was 2.

A word on the Kd: it is the concentration at which binding is half-saturated. A higher Kd goes with lower affinity. One may read the stoichiometry N as the number of molecules, sites or subunits per partner or assembly.
